Experimental data from patent US20150231218A1 (MAYO FOUNDATION FOR MEDICAL EDUCATION AND RESEARCH, published 2015).

Biological target: T1, HLA-A2 (class I MHC molecule) on TAP deficient T2 cells
T1 construct: whole, on cells; Target of the T2 HLA-A2 stabilization assay; The assay text says only HLA-A2; also called HLA-A*0201
Test: T2 HLA-A2 stabilization assay
Source text: Many of the polypeptides that were processed in the assay were synthesized and tested for binding to the class I MHC molecule, HLA-A2, using the standard T2 HLA-A2 stabilization assay.

Binder: SLAFLPESFD (Synthetic peptide) [HER-2/neu polypeptide p373-382 (SLAFLPESFD)]
- binding result: binds
